Assay results from paper PMC4605305, “TRAP150 interacts with the RNA-binding domain of PSF and antagonizes splicing of numerous PSF-target genes in T cells” (Nucleic Acids Research, 2015).

T1: PSF exRRMs (human, UniProt P23246 266-484)
T1 sequence: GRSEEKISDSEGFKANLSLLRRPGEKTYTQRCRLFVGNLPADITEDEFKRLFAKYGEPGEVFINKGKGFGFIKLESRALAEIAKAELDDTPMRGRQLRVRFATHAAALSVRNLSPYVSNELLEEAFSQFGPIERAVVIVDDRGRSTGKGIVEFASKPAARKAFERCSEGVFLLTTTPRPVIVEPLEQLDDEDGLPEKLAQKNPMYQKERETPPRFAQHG

T2: PSF exRRM2 (human, UniProt P23246 366-484)
T2 sequence: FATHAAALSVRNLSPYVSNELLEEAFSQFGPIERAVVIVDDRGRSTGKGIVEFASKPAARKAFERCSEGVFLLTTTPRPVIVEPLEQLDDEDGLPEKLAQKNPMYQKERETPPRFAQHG

T3: PSF exRRM1 (human, UniProt P23246 266-365)
T3 sequence: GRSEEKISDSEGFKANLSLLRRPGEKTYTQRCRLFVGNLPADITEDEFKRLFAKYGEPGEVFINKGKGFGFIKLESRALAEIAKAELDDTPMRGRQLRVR

T4: HisFLAG-PSF exRRMs (266-484) (UniProt P23246 266-484)
T4 construct: also called HisFLAG-exRRMs; HFexRRM1+2; source: E. coli Rosetta(DE3)pLysS, purified (Ni-NTA, SEC); not shown: His6, N-terminal, kept; FLAG, N-terminal, kept
T4 sequence (looked up): T1 sequence

T5: HisFLAG-PSF full length (UniProt P23246 1-707)
T5 construct: PSF (SFPQ), full length; pet15b with an inserted FLAG tag; also called PSF-FL; full length His-tagged PSF; source: E. coli Rosetta(DE3)pLysS, purified (Ni-NTA, SEC); not shown: His6, N-terminal, kept; FLAG, N-terminal, kept
T5 sequence (looked up): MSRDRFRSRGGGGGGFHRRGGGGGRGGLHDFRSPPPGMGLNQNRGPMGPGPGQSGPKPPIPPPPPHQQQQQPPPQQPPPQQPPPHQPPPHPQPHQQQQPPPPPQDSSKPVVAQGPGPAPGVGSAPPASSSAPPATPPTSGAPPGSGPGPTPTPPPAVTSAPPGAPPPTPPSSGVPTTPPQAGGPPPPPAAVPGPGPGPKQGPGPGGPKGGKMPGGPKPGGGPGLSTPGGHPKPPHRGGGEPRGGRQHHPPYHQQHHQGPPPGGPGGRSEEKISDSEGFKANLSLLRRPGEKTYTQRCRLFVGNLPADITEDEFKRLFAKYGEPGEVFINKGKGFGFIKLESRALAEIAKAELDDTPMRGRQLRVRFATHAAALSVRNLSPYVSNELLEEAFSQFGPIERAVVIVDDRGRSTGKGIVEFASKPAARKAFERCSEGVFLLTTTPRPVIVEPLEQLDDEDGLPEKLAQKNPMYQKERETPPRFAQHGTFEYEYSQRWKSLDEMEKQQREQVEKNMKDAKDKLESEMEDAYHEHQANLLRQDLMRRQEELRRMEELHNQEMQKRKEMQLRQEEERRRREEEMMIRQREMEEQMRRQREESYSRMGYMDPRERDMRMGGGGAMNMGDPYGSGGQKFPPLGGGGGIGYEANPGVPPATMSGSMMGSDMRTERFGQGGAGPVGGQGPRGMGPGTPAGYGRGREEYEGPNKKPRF

B1: SRL-1 (ssRNA)
RNA: AACCAAGAGGUUUCUCGCGUAUUUCUCUCAUUUUUUUACCCAUUUUACAAAUUUUUUUUGCUAUUUGAGCCAUAGUACCCAUUAAUAGGUCUCGUCCAUUCCCUUGUUUUUUUUUUAUUGUUUCAAUUACACUACAUAAUUAAAAAUCACAUCACUUUCACUCUCACCUUAGUCGUUCUUUAUCAACCAAAAAUAAAAAAAUGCUUCAAUCCGUUGUCUU
B2: HisFLAG-PSF ΔRRM2 (natural protein)
chain: MSRDRFRSRGGGGGGFHRRGGGGGRGGLHDFRSPPPGMGLNQNRGPMGPGPGQSGPKPPIPPPPPHQQQQQPPPQQPPPQQPPPHQPPPHPQPHQQQQPPPPPQDSSKPVVAQGPGPAPGVGSAPPASSSAPPATPPTSGAPPGSGPGPTPTPPPAVTSAPPGAPPPTPPSSGVPTTPPQAGGPPPPPAAVPGPGPGPKQGPGPGGPKGGKMPGGPKPGGGPGLSTPGGHPKPPHRGGGEPRGGRQHHPPYHQQHHQGPPPGGPGGRSEEKISDSEGFKANLSLLRRPGEKTYTQRCRLFVGNLPADITEDEFKRLFAKYGEPGEVFINKGKGFGFIKLESRALAEIAKAELDDTPMRGRQLRVRFATHAGGSGHMLEQLDDEDGLPEKLAQKNPMYQKERETPPRFAQHGTFEYEYSQRWKSLDEMEKQQREQVEKNMKDAKDKLESEMEDAYHEHQANLLRQDLMRRQEELRRMEELHNQEMQKRKEMQLRQEEERRRREEEMMIRQREMEEQMRRQREESYSRMGYMDPRERDMRMGGGGAMNMGDPYGSGGQKFPPLGGGGGIGYEANPGVPPATMSGSMMGSDMRTERFGQGGAGPVGGQGPRGMGPGTPAGYGRGREEYEGPNKKPRF
notes: PSF (SFPQ) residues 1-370; linker joining the N- and C-terminal portions; PSF (SFPQ) residues 450-707; source: E. coli Rosetta(DE3)pLysS, purified (Ni-NTA, SEC); not shown: His6, N-terminal, kept; FLAG, N-terminal, kept
B3: MKK7 (ssRNA)
RNA: CCUCCUCGUUUAUGAUUUGAUUUCUUUUCUUUUGGACGAAUCGGUCGUUUCUGUUGUGAUUUAUCGUGGUGUUGUUUUUUUCUUCCUUUUCCCCAUCCAG
B4: GST-TRAP150 580–755 (domain or fragment, UniProt Q9Y2W1 580-755, looked up)
chain: LARPSGLLAQERKLCRDLVHSNKKEQEFRSIFQHIQSAQSQRSPSELFAQHIVTIVHHVKEHHFGSSGMTLHERFTKYLKRGTEQEAAKNKKSPEIHRRIDISPSTFRKHGLAHDEMKSPREPGYKAEGKYKDDPVDLRLDIERRKKHKERDLKRGKSRESVDSRDSSHSRERSAE
notes: source: E. coli Rosetta(DE3)pLysS, purified (glutathione sepharose, SEC); not shown: GST, N-terminal, kept
B5: HisFLAG-PSF ΔRRM1 (natural protein)
chain: MSRDRFRSRGGGGGGFHRRGGGGGRGGLHDFRSPPPGMGLNQNRGPMGPGPGQSGPKPPIPPPPPHQQQQQPPPQQPPPQQPPPHQPPPHPQPHQQQQPPPPPQDSSKPVVAQGPGPAPGVGSAPPASSSAPPATPPTSGAPPGSGPGPTPTPPPAVTSAPPGAPPPTPPSSGVPTTPPQAGGPPPPPAAVPGPGPGPKQGPGPGGPKGGKMPGGPKPGGGPGLSTPGGHPKPPHRGGGEPRGGRQHHPPYHQQHHQGPPPGGPGGRSEEKISDSEGFKANLSLLRRPGEKTYTQRCRGGSGHMATHAAALSVRNLSPYVSNELLEEAFSQFGPIERAVVIVDDRGRSTGKGIVEFASKPAARKAFERCSEGVFLLTTTPRPVIVEPLEQLDDEDGLPEKLAQKNPMYQKERETPPRFAQHGTFEYEYSQRWKSLDEMEKQQREQVEKNMKDAKDKLESEMEDAYHEHQANLLRQDLMRRQEELRRMEELHNQEMQKRKEMQLRQEEERRRREEEMMIRQREMEEQMRRQREESYSRMGYMDPRERDMRMGGGGAMNMGDPYGSGGQKFPPLGGGGGIGYEANPGVPPATMSGSMMGSDMRTERFGQGGAGPVGGQGPRGMGPGTPAGYGRGREEYEGPNKKPRF
notes: PSF (SFPQ) residues 1-298; linker joining the N- and C-terminal portions; PSF (SFPQ) residues 367-707; source: E. coli Rosetta(DE3)pLysS, purified (Ni-NTA, SEC); not shown: His6, N-terminal, kept; FLAG, N-terminal, kept
B6: GST-TRAP150 686–755 (PSF-interacting domain, PID) (domain or fragment, UniProt Q9Y2W1 686-755, looked up)
chain: FRKHGLAHDEMKSPREPGYKAEGKYKDDPVDLRLDIERRKKHKERDLKRGKSRESVDSRDSSHSRERSAE
notes: also called GST-TRAP(PID); TRAP150 PID; source: E. coli Rosetta(DE3)pLysS, purified (glutathione sepharose, SEC); not shown: GST, N-terminal, kept
B7: Gb1-tagged TRAP150 686–755 (TRAP-PID) (domain or fragment, UniProt Q9Y2W1 686-755, looked up)
chain: B6 chain
notes: 6xHis + GB1 fusion vector pGβ1; also called Gb1-tagged construct of the TRAP-PID; source: E. coli Rosetta(DE3)pLysS, purified (Ni-NTA, SEC)
B8: GST-TRAPΔN (TRAP150 266-955) (domain or fragment, UniProt Q9Y2W1 266-955, looked up)
chain: RPSPVPKPSPPLSSTSQMGSTLPSGAGYQSGTHQGQFDHGSGSLSPSKKSPVGKSPPSTGSTYGSSQKEESAASGGAAYTKRYLEEQKTENGKDKEQKQTNTDKEKIKEKGSFSDTGLGDGKMKSDSFAPKTDSEKPFRGSQSPKRYKLRDDFEKKMADFHKEEMDDQDKDKAKGRKESEFDDEPKFMSKVIGANKNQEEEKSGKWEGLVYAPPGKEKQRKTEELEEESFPERSKKEDRGKRSEGGHRGFVPEKNFRVTAYKAVQEKSSSPPPRKTSESRDKLGAKGDFPTGKSSFSITREAQVNVRMDSFDEDLARPSGLLAQERKLCRDLVHSNKKEQEFRSIFQHIQSAQSQRSPSELFAQHIVTIVHHVKEHHFGSSGMTLHERFTKYLKRGTEQEAAKNKKSPEIHRRIDISPSTFRKHGLAHDEMKSPREPGYKAEGKYKDDPVDLRLDIERRKKHKERDLKRGKSRESVDSRDSSHSRERSAEKTEKTHKGSKKQKKHRRARDRSRSSSSSSQSSHSYKAEEYTEETEEREESTTGFDKSRLGTKDFVGPSERGGGRARGTFQFRARGRGWGRGNYSGNNNNNSNNDFQKRNREEEWDPEYTPKSKKYYLHDDREGEGSDKWVSRGRGRGAFPRGRGRFMFRKSSTSPKWAHDKFSGEEGEIEDDESGTENREEKDNIQPTTE
notes: pGEX-6-P1; also called GST-TRAP150ΔN; TRAP150-ΔN; source: E. coli Rosetta(DE3)pLysS, purified (glutathione sepharose, SEC); not shown: GST, N-terminal, kept

Assays:
PSF exRRMs = target: T1, PSF exRRMs; test: EMSA; UV crosslinking: 12 mM Tris pH 7.5, 120 mM NaCl, 3 mM MgCl2, 1 mM ATP, 20 mM phosphocreatine, 0.1 mM EDTA, 12% glycerol, 1.3% PVA, 25 ng/ul yeast tRNA, 20 ng/ul; conditions: protein: recombinant; tags: 6xHis-FLAG N-term; label: uniform 32P
PSF exRRM2 = target: T2, PSF exRRM2; test: as above; conditions: protein: recombinant; tags: 6xHis-FLAG N-term; label: uniform 32P
PSF exRRM1 = target: T3, PSF exRRM1; test: EMSA; unmeasurable affinity; UV crosslinking: 12 mM Tris pH 7.5, 120 mM NaCl, 3 mM MgCl2, 1 mM ATP, 20 mM phosphocreatine, 0.1 mM EDTA, 12% glycerol, 1.3% PVA, 25 ng/ul yeast tRNA, 20 ng/ul; conditions: protein: recombinant; tags: 6xHis-FLAG N-term; label: uniform 32P
[1] = target: B8; test: pull-down; 40 ug GST-tagged bait on glutathione sepharose 4B beads; prey incubated 1.5 h at 4°C in PBS; washes with PBS supplemented with 300 mM NaCl; western blot; conditions: both partners purified
[2] = target: T4, HisFLAG-PSF exRRMs (266-484); test: as above; conditions: both partners purified
[3] = target: T4, HisFLAG-PSF exRRMs (266-484); test: pull-down; Gb1-tagged TRAP150 686-755 precipitated with IgG beads; HisFLAG-exRRMs detected; conditions: both partners purified
HisFLAG-PSF full length = target: T5, HisFLAG-PSF full length; test: pull-down; 40 ug GST-tagged bait on glutathione sepharose 4B beads; prey incubated 1.5 h at 4°C in PBS; washes with PBS supplemented with 300 mM NaCl; western blot; conditions: both partners purified

Binder: B1
binding result (PSF exRRMs): binds
binding result (PSF exRRM2): binds
binding result (PSF exRRM1): no binding

Binder: B2
binding result [1]: binds

Binder: B3
binding result (PSF exRRMs): binds
binding result (PSF exRRM2): binds
binding result (PSF exRRM1): no binding

Binder: B4
binding result [2]: binds

Binder: B5
binding result [1]: binds

Binder: B6
binding result [2]: binds

Binder: B7
binding result [3]: binds

Binder: B8
binding result (HisFLAG-PSF full length): binds
